For one assay, the target named is LaeA (Aspergillus nidulans, UniProt C8VQG9). The settings on record: labelled compound; room temperature, UV on ice 30 min; GST-LaeA.
Assay [1] has as its target T1, His6-VeA-S-tag (recombinant) (Aspergillus nidulans, UniProt C8VTV4 1-573).
T1 construct: VeA, Aspergillus nidulans; E. coli codon-optimized version obtained from Reinhard Fischer, EcoRI-XhoI fragment in pRSF-1b; source: E. coli BL21 (λDE3), purified (Ni-NTA); not shown: His6, N-terminal, kept; S-tag, C-terminal, kept
T1 sequence (looked up): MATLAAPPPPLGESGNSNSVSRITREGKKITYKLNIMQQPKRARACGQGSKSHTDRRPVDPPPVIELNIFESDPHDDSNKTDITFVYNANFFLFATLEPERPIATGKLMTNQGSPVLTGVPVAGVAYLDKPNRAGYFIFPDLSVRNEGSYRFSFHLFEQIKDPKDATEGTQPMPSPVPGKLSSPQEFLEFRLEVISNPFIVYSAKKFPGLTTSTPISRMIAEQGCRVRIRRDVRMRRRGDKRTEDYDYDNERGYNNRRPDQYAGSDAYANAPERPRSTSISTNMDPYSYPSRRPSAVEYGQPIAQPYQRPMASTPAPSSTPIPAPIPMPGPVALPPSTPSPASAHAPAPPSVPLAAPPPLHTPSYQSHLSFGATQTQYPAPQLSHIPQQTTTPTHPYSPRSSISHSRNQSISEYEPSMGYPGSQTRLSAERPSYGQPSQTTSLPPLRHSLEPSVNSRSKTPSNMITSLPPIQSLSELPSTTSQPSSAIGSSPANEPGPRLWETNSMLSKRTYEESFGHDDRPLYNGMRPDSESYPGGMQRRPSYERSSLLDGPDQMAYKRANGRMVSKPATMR
The assay can be described thus: pull-down; 10 µg purified GST tagged protein, glutathione sepharose and purified His6-VeA-S-tag, 3 hours at 4°C in PBS buffer with 1 mM DTT, pH 7.3; anti-S-tag immunoblot. The settings on record: both partners purified. (In western blotting, separated proteins are transferred to a membrane and probed.)

Turning to `C[S+](CC[C@H](N)C(=O)O)C[C@H]1O[C@@H](n2cnc3c(N)ncnc32)[C@H](O)[C@@H]1O` (stereo partly drawn) [S-adenosyl methionine], the “UV crosslinking of 3H-SAM, SDS-PAGE and tritium phosphor screen” value at LaeA is “these results indicate that both LaeA and LlmF have the ability to bind SAM”.

B1: GST-VelB (recombinant) (natural protein, Aspergillus nidulans, UniProt C8VTS4 1-369, looked up)
chain: MYAVEDRAHSGHHPPPLSMDRIPPPSTMYPSSAGPSAMVSPAGQPEPESLSTVHDGRIWSLQVVQQPIRARMCGFGDKDRRPITPPPCIRLIVKDAQTQKEVDINSLDSSFYVVMADLWNADGTHEVNLVKHSATSPSISTAMSSSYPPPPHPTSSDYPASYQTNPYGQPVGQPVGQPVGYAGVGNYYGGSTQLQYQNAYPNPQAQYYQPMYGGMAQPQMPAAQPVTPGPGGMFTRNLIGCLSASAYRLYDTEDKIGVWFVLQDLSVRTEGIFRLKFSFVNVGKSVSDLPQSDIAEVINKGTAPILASTFSEPFQVFSAKKFPGVIESTPLSKVFANQGIKIPIRKDGVKGQGSRGRHSDEDDGLDNEY
notes: VelB, Aspergillus nidulans; GST fusion in pGEX; source: E. coli BL21 (λDE3), purified (glutathione sepharose 6B)
B1: the binding result in assay [1] is given as “binds”.

B2: GST-LaeA (recombinant) (natural protein, Aspergillus nidulans, UniProt C8VQG9 1-374, looked up)
chain: MFEMGPVGTRLPAMTSPAHNHYSYHSPTSSDRGRSRQNSDAMDIQSITEREPATRYAVAGGPAPWNRNGSPSMSPMYSNNSERNQFHEENGRTYHGFRRGMYFLPCDEQEQDRLDIFHKLFTVARVSESLIYAPHPTNGRFLDLGCGTGIWAIEVANKYPDAFVAGVDLAPIQPPNHPKNCEFYAPFDFEAPWAMGEDSWDLIHLQMGCGSVMGWPNLYRRIFAHLRPGAWFEQVEIDFEPRCDDRSLDGTALRHWYDCLKQATAETMRPIAHSSRDTIKDLQDAGFTEIDHQIVGLPLNPWHQDEHERKVARWYNLAVSESIENLSLAPFSRVYRWPLERIQQLAADVKSEAFNKEIHAYNILHIYQARKPLR
notes: LaeA, Aspergillus nidulans, locus AN0807; GST fusion in pGEX; source: E. coli BL21 (λDE3), purified (glutathione sepharose 6B)
For the molecule B2, the binding result in assay [1] was “binds”.

These data come from article PMC3547832, “Secondary Metabolism and Development Is Mediated by LlmF Control of VeA Subcellular Localization in Aspergillus nidulans” (PLoS Genetics, 2013).
